In US8546531B2, “Methods and reagents for preparing multifunctional probes” (The General Hospital Corporation, priority 2008, dated 2013):

System: integrin-expressing B16F0 melanoma
Details: mouse, in vivo, iv
Protocol: Approximately 1·10^6 B16F0 murine melanoma cells (from C57BL6 mice) in PBS (40 μL) were injected s.c. into the right hind paw of 6-8 weeks female C57BL6 mice (Charles River Laboratories). After 4 weeks, tumors reached a size suitable for nuclear imaging experiments.
SPECT imaging co-registered with high-resolution CT was performed on a X-SPECT™ system (Gamma Medica, Northridge, Calif., USA). The SPECT system has two gamma cameras, equipped with 1 mm diameter medium-energy pinhole collimators. The solid state CT is mounted on the same gantry as the gamma cameras enabling high quality image fusion. The SPECT images were reconstructed using OSEM (ordered subsets expectation maximization) and CT images were reconstructed using a modified Feldkamp cone-beam reconstruction algorithm (COBRA). The ^111In-MSAP-RGD probe (300 μCi in 150 μL) was injected (iv, tail vein) and after 2 hours mice were anesthetized (isoflurane). CT (256 projections, 50 kV, 0.5 mA) was performed followed by a SPECT acquisition with parameters of 64 projections, 30-120 seconds per projection and a radius of rotation of 3.5 cm giving a resolution of 1.8 mm. […] Mean SPECT pixel intensity and tumor volumes were determined by designing regions of interest (ROIs) on the hind paws of the micrometer resolution CT scans and extrapolating these ROIs to the fused SPECT data using Osirix software. […]

N=C(N)NCCC[C@@H]1NC(=O)[C@H](CCCCNC(=O)CCCN2C(=O)CC(SC[C@H](NC(=O)[C@H](CCCCNC(=O)CCCCCNc3ccc([N+](=O)[O-])c4nonc34)NC(=O)CN(CCN(CC(=O)O)CC(=O)O)CCN(CC(=O)O)CC(=O)O)C(N)=O)C2=O)NC(=O)[C@@H](Cc2ccccc2)NC(=O)[C@H](CC(=O)O)NC(=O)CNC1=O (stereo partly shown) (111In complex, metal not drawn) [MSAP-RGD probe]
distribution of the probe within the tumor: occurred in parts of the tumor with high CD31 (endothelial cell maker) levels and CD11b (monocytes/macrophages marker) levels
